The results in this text go back to US20170296640A1 (IMMATICS BIOTECHNOLOGIES, published 2017).

B1: AQVALVNEV (SEQ ID NO: 306) (peptide)
peptide: AQVALVNEV
B2: ALLEGVKNV (SEQ ID NO: 43) (peptide)
peptide: ALLEGVKNV
B3: RLLEEEGVSL (SEQ ID NO: 299) (peptide)
peptide: RLLEEEGVSL
B4: ILQNGLETL (SEQ ID NO: 297) (peptide)
peptide: ILQNGLETL
B5: KLYGPEGLELV (SEQ ID NO: 294) (peptide)
peptide: KLYGPEGLELV
B6: VILDIPLLFET (SEQ ID NO: 36) (peptide)
peptide: VILDIPLLFET
B7: SLLIDVITV (SEQ ID NO: 60) (peptide)
peptide: SLLIDVITV
B8: ILASIFETV (SEQ ID NO: 41) (peptide)
peptide: ILASIFETV
B9: YLQDLVERA (SEQ ID NO: 42) (peptide)
peptide: YLQDLVERA
B10: VLQGLTFTL (SEQ ID NO: 5) (peptide)
peptide: VLQGLTFTL
B11: QLAPFLPQL (SEQ ID NO: 58) (peptide)
peptide: QLAPFLPQL
B12: SLSSERYYL (SEQ ID NO: 35) (peptide)
peptide: SLSSERYYL
B13: SLLDQIPEM (SEQ ID NO: 308) (peptide)
peptide: SLLDQIPEM
B14: KLINSQISL (SEQ ID NO: 292) (peptide)
peptide: KLINSQISL
B15: RLAPEIVSA (SEQ ID NO: 288) (peptide)
peptide: RLAPEIVSA
B16: ALIRLDDLFL (SEQ ID NO: 304) (peptide)
peptide: ALIRLDDLFL
B17: LLANIVPIAMLV (SEQ ID NO: 33) (peptide)
peptide: LLANIVPIAMLV
B18: FLREYFERL (SEQ ID NO: 53) (peptide)
peptide: FLREYFERL
B19: GLQDLLFSL (SEQ ID NO: 56) (peptide)
peptide: GLQDLLFSL
B20: SLSFVSPSL (SEQ ID NO: 309) (peptide)
peptide: SLSFVSPSL
B21: DIFDAMFSV (SEQ ID NO: 54) (peptide)
peptide: DIFDAMFSV
B22: FVWEASHYL (SEQ ID NO: 303) (peptide)
peptide: FVWEASHYL
B23: ALMPVTPQA (SEQ ID NO: 283) (peptide)
peptide: ALMPVTPQA
B24: SLAELDEKISA (SEQ ID NO: 302) (peptide)
peptide: SLAELDEKISA
B25: GLLPKLTAL (SEQ ID NO: 47) (peptide)
peptide: GLLPKLTAL
B26: LLLDGLIYL (SEQ ID NO: 50) (peptide)
peptide: LLLDGLIYL
B27: LQIGDFVSV (SEQ ID NO: 57) (peptide)
peptide: LQIGDFVSV
B28: LTIDTQYYL (SEQ ID NO: 3) (peptide)
peptide: LTIDTQYYL
B29: YLLEQGAQV (SEQ ID NO: 282) (peptide)
peptide: YLLEQGAQV
B30: FIIEEQSFL (SEQ ID NO: 44) (peptide)
peptide: FIIEEQSFL
B31: AMLAQQMQL (SEQ ID NO: 305) (peptide)
peptide: AMLAQQMQL
B32: FLLPVAVKL (SEQ ID NO: 307) (peptide)
peptide: FLLPVAVKL
B33: VLNEDELPSV (SEQ ID NO: 32) (peptide)
peptide: VLNEDELPSV
B34: ILSDVTQGL (SEQ ID NO: 29) (peptide)
peptide: ILSDVTQGL
B35: ILSTLDVEL (SEQ ID NO: 30) (peptide)
peptide: ILSTLDVEL
B36: HLTEDTPKV (SEQ ID NO: 286) (peptide)
peptide: HLTEDTPKV
B37: FILDDSALYL (SEQ ID NO: 45) (peptide)
peptide: FILDDSALYL
B38: LIDDKGTIKL (SEQ ID NO: 314) (peptide)
peptide: LIDDKGTIKL
B39: FLVEEIFQT (SEQ ID NO: 46) (peptide)
peptide: FLVEEIFQT
B40: SLLAANNLL (SEQ ID NO: 289) (peptide)
peptide: SLLAANNLL
B41: LQFDGIHVV (SEQ ID NO: 301) (peptide)
peptide: LQFDGIHVV
B42: ALTDVILCV (SEQ ID NO: 298) (peptide)
peptide: ALTDVILCV
B43: YLTAEILELAGN (SEQ ID NO: 38) (peptide)
peptide: YLTAEILELAGN
B44: ILVEVDLVQA (SEQ ID NO: 55) (peptide)
peptide: ILVEVDLVQA
B45: KLQEQIHRV (SEQ ID NO: 284) (peptide)
peptide: KLQEQIHRV
B46: YLHRQVAAV (SEQ ID NO: 311) (peptide)
peptide: YLHRQVAAV
B47: SLAAVSQQL (SEQ ID NO: 295) (peptide)
peptide: SLAAVSQQL
B48: IVLERNPEL (SEQ ID NO: 300) (peptide)
peptide: IVLERNPEL
B49: SLLGNSPVL (SEQ ID NO: 51) (peptide)
peptide: SLLGNSPVL
B50: KIIDTAGLSEA (SEQ ID NO: 291) (peptide)
peptide: KIIDTAGLSEA
B51: SITAVTPLL (SEQ ID NO: 285) (peptide)
peptide: SITAVTPLL
B52: KILDEDLYI (SEQ ID NO: 48) (peptide)
peptide: KILDEDLYI
B53: ILMGHSLYM (SEQ ID NO: 287) (peptide)
peptide: ILMGHSLYM
B54: TLLGFFLAKV (SEQ ID NO: 4) (peptide)
peptide: TLLGFFLAKV
B55: RLHREVAQV (SEQ ID NO: 59) (peptide)
peptide: RLHREVAQV
B56: VMAEAPPGV (SEQ ID NO: 310) (peptide)
peptide: VMAEAPPGV
B57: KLYDEESLL (SEQ ID NO: 31) (peptide)
peptide: KLYDEESLL
B58: VLGNALEGV (SEQ ID NO: 37) (peptide)
peptide: VLGNALEGV
B59: VLLEDVDAAFL (SEQ ID NO: 52) (peptide)
peptide: VLLEDVDAAFL
B60: FLNSVIVDL (SEQ ID NO: 40) (peptide)
peptide: FLNSVIVDL
B61: IASPVIAAV (SEQ ID NO: 290) (peptide)
peptide: IASPVIAAV
B62: GLAMVEAISYV (SEQ ID NO: 293) (peptide)
peptide: GLAMVEAISYV
B63: FILEPLYKI (SEQ ID NO: 296) (peptide)
peptide: FILEPLYKI
B64: LLWEDGVTEA (SEQ ID NO: 34) (peptide)
peptide: LLWEDGVTEA
B65: QLLPQGIVPAL (SEQ ID NO: 39) (peptide)
peptide: QLLPQGIVPAL
B66: TILGDPQILL (SEQ ID NO: 49) (peptide)
peptide: TILGDPQILL

The target in this experiment is T1, HLA-A*02:01 (peptide-receptive MHC class I monomer after UV cleavage of the UV-sensitive ligand) (human).
T1 construct: MHC monomers loaded by UV-ligand exchange and captured on streptavidin plates
Briefly: UV ligand-exchange ELISA; exchange yield grade (+ >=10%, ++ >=20%, +++ >=50%, ++++ >=75%). Summed up:
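Binding capacity is expressed as the yield of UV-mediated ligand exchange, reflecting how well each peptide stabilizes peptide-receptive MHC. Stabilized complexes are read out by anti-β2m HRP ELISA (450 nm) after streptavidin capture, with refolded MLA-001 monomer standards for quantitation.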
A general note: An ELISA detects its analyte on a solid surface through an enzyme-linked reagent.
Consider B1, for which the peptide exchange yield lay in the range of 50 to 75%.

As to B2, the peptide exchange yield was 50 to 75%.

In the case of B3, the peptide exchange yield lay in the range of 50 to 75%.

Turning to B4, the peptide exchange yield was in the range of 50 to 75%.

For B5, the peptide exchange yield was not below 75%.

In the case of B6, the peptide exchange yield was in the range of 50 to 75%.

With B7, the peptide exchange yield was in the range of 50 to 75%.

The molecule B8 returned a peptide exchange yield not below 75%.

B9: the peptide exchange yield is not below 75%.

Consider B10, for which the peptide exchange yield is 50 to 75%.

On to B11, for which the peptide exchange yield is 50 to 75%.

With B12, the peptide exchange yield lay in the range of 50 to 75%.

In turn, B13 came in with a peptide exchange yield of 50 to 75%.

With B14, the peptide exchange yield was in the range of 50 to 75%.

Turning to B15, the peptide exchange yield is 50 to 75%.

Regarding B16, the peptide exchange yield fell in the range of 50 to 75%.

The molecule B17 had a peptide exchange yield not below 75%.

Regarding B18, the peptide exchange yield is not below 75%.

In turn, B19 registered a peptide exchange yield of 50 to 75%.

With B20, the peptide exchange yield lay within 50 to 75%.

B21: the binding result was “binds”.

Molecule B22 had a peptide exchange yield not below 75%.

The molecule B23 returned a peptide exchange yield of 50 to 75%.

Regarding B24, the peptide exchange yield was in the range of 50 to 75%.

B25 showed a peptide exchange yield of 50 to 75%.

B26 had a peptide exchange yield of 50 to 75%.

As for B27, the peptide exchange yield was not below 75%.

B28 had a peptide exchange yield of 50 to 75%.

Take B29: the peptide exchange yield was not below 75%.

For B30, the peptide exchange yield lay in the range of 50 to 75%.

Molecule B31 displayed a peptide exchange yield of 50 to 75%.

The molecule B32 returned a peptide exchange yield of 50 to 75%.

In the case of B33, the peptide exchange yield was 50 to 75%.

Regarding B34, the peptide exchange yield lay within 50 to 75%.

Regarding B35, the peptide exchange yield lay within 50 to 75%.

The molecule B36 showed a peptide exchange yield of 50 to 75%.

In turn, B37 displayed a peptide exchange yield of 50 to 75%.

In turn, B38 returned a peptide exchange yield of 20 to 50%.

With B39, the peptide exchange yield is 50 to 75%.

The molecule B40 displayed a peptide exchange yield not below 75%.

For B41, the peptide exchange yield was in the range of 50 to 75%.

As for B42, the peptide exchange yield is not below 75%.

With B43, the peptide exchange yield is 20 to 50%.

B44 came in with a peptide exchange yield not below 75%.

In turn, B45 had a peptide exchange yield of 50 to 75%.

B46 registered a peptide exchange yield of 50 to 75%.

The molecule B47 showed a peptide exchange yield of 50 to 75%.

Molecule B48 registered a peptide exchange yield of 50 to 75%.

B49 registered a peptide exchange yield not below 75%.

B50: the peptide exchange yield was in the range of 50 to 75%.

The molecule B51 came in with a peptide exchange yield of 50 to 75%.

With B52, the peptide exchange yield fell in the range of 50 to 75%.

B53: the peptide exchange yield is not below 75%.

For B54, the peptide exchange yield is 20 to 50%.

In the case of B55, the peptide exchange yield lay within 50 to 75%.

Turning to B56, the peptide exchange yield was in the range of 50 to 75%.

B57 registered a peptide exchange yield not below 75%.

In turn, B58 showed a peptide exchange yield of 50 to 75%.

B59 gave a peptide exchange yield not below 75%.

B60 yielded a peptide exchange yield not below 75%.

The molecule B61 had a peptide exchange yield of 50 to 75%.

Consider B62, for which the peptide exchange yield is not below 75%.

Molecule B63 returned a peptide exchange yield not below 75%.

In turn, B64 gave a peptide exchange yield of 50 to 75%.

Molecule B65 registered a peptide exchange yield of 50 to 75%.

Take B66: the peptide exchange yield is not below 75%.
